Reference: patent US20030083261A1, “Class of 12mer peptides that inhibit the function of the mitotic check point protein Mad2” (priority 2001, published 2003)
Entries after “also recorded” stand apart in the source; their conditions may differ. No end group written: not given here.

How the values were obtained:
Mad2 [1] = biological target: T1, Mad2 (Homo sapiens, UniProt Q13257); assay: Aggregation of Mad2-peptide complex over time (HSQC after incubation at 30° C.); parameters: made in house; conditions: incubation at 30° C. / extended periods of time
T1 sequence (Q13257 whole entry): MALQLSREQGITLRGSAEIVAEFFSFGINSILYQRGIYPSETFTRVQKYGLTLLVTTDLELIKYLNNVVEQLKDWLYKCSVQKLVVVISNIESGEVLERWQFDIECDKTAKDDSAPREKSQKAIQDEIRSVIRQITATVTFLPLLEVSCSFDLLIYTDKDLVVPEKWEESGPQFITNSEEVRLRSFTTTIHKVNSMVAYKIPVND
Method: To confirm if the complex aggregated over time, an HSQC spectrum was acquired on a freshly prepared ^15N-Mad2-Cdc20P1 sample. This sample was then incubated at 30° C. (the temperature for NMR data acquisition) for 48 hours and another HSQC was acquired.

Mad2 [2] = biological target: T1, Mad2; assay: 1H-15N HSQC NMR binding and competition on 15N-labeled Mad2; parameters: made in house; conditions: for binding to Mad2: change of the HSQC spectrum of Mad2: addition of peptide to 15N-labeled Mad2; for relative affinity toward Mad2 by competition: two peptides added to Mad2, HSQC spectrum
Method: To determine whether MBP1 and Cdc20 bind to the same site on Mad2. Mad2 was pre-incubated with an excess amount of Cdc20P1. MBP1 was then added to the pre-formed Mad2-Cdc20P1 complex. HSQC spectra were taken before and after the addition of MBP1. Prior to the addition of MBP1, Mad2 formed a complex with Cdc20P1 as indicated by the HSQC spectrum. After the addition of MBP1, the HSQC spectrum of the resulting sample looked identical to that of the Mad2-MBP1 complex. Therefore, MBP1 effectively displaced Cdc20P1 away from Mad2 and formed a complex with Mad2 in the presence of Cdc20P1. […] However, it is also conceivable that MBP1 affects the binding of Cdc20P1 to Mad2 in an allosteric fashion.
The relative affinity of Mad2-MBP2 was compared to Mad2-Cdc20P1 and Mad2-MBP1. […] However, when both MBP1 and MBP2 were added to Mad2, the HSQC spectrum of the resulting sample contained two sets of signals of roughly equal intensity: one set of signals belonged to Mad2-MBP1 while the other set was from Mad2-MBP2. […] Furthermore, the exchange between these two bound forms of Mad2 occurs with a rate that is slow on the NMR time scale.

[3] = in words; cited from earlier work
Mad2 [4] = biological target: T1, Mad2; assay: Tryptophan fluorescence titration of Mad2 with peptide; type: binding; parameters: made in house; conditions: addition of peptide to saturation
Method: Binding affinity between Mad2 and Cdc20P1 was determined. Two tryptophan residues are located in the proximity of the C-terminal tail of Mad2 that is involved in binding to Cdc20. Thus, binding of Cdc20P1 may affect the tryptophan fluorescence of Mad2. The intensity of tryptophan fluorescence of Mad2 was indeed reduced by 70% upon the addition of Cdc20P1 to saturation. […] This is consistent with the fact that binding of Cdc20P1 to Mad2 occurs with an intermediate exchange rate on the NMR time scale. The relative low affinity of Cdc20P1 toward Mad2 may also be the cause of the slow aggregation phenomenon of the Mad2-Cdc20P1 complex. Thus, Mad2 ligands with higher affinity for Mad2 are required for structural studies.

[5] = oral administration; cited from earlier work
Mad2 [6] = biological target: T1, Mad2; assay: ELISA-type assay of phage display clones on Mad2; type: binding; parameters: made in house; conditions: phage clone on Mad2
Description: Phage display library with Mad2 was screened and several clones were sequenced and analyzed using ELISA-type assays.
By coincidence, the MBP1 sequence was isolated again and the MBP1 phage clone gave an ELISA reading of 0.62 (OD at 410 nm). […] The peptides with higher ELISA readings than MBP1 are synthesized. As these peptides, including MBP1, contain tryptophan in their sequences, tryptophan fluorescence assay cannot be used to measure the affinities of these peptides toward Mad2. Alternative assays are developed and used.

HeLa cells = assay: Mitotic arrest by GFP-Mad2 overexpression in HeLa cells; type: cell-based; conditions: co-transfection of plasmid encoding the peptide; cell shape, DNA-staining, FACS
Description: Overexpression of Mad2 in HeLa cells causes a prolonged mitotic arrest because Mad2 at elevated levels inhibits APCCdc20 in these cells in the absence of spindle damage. […] The cells round up when they undergo mitosis while the interphase cells are flat. […] The cell cycle status of the transfected cells was also confirmed by DNA-staining and by FACS analysis.

Mad2 [7] = biological target: T1, Mad2; assay: In vitro APC ubiquitination assay (Mad2 inhibition of APC^Cdc20, cyclin B1 substrate); type: biochemical; conditions: peptide at 100 μM
Description: To determine whether binding of MBP1 affects the association of Mad2 with the intact Cdc20, the inventors performed an in vitro APC ubiquitination assay. In this assay, a Myc-epitope tagged N-terminal fragment of human cyclin B1 was used as the substrate. Purified recombinant human E1, UbcH10 (E2), ATP, and ubiquitin were also included (FIG. 3A). In the presence of active APC (E3), ubiquitin was ligated to the lysine side chains of cyclin B1, forming cyclin-ubiquitin conjugates with isopeptide linkages. The reaction mixture was then analyzed by SDS-PAGE followed by immuno-blotting with an anti-Myc antibody. The appearance and the intensity of the higher molecular weight bands were then used as the criteria for the activity of APC.
Addition of the APC activator, Cdc20, greatly stimulated the activity of APC. […] Therefore, MBP1 can block the biochemical function of Mad2 in vitro.

[8] = oral tablet; cited from earlier work
[9] = in vivo; cited from earlier work
[10] = cited from earlier work
[11] = biological target: T2, Mad2 protein (mitotic checkpoint protein Mad2, purified recombinant) (UniProt Q13257 1-205); assay: tryptophan fluorescence titration of Mad2 with Cdc20P1
T2 construct: also called 15N-Mad2; free Mad2
T2 sequence (Q13257 whole entry): as above

MBP2: Mad2-binding peptide from phage display sharing strong sequence similarity with Cdc20P1, no tryptophans; probably DARIIKLPVPKP (SEQ ID NO:3)
aggregation of the Mad2-peptide complex (Mad2 [1]): did not form high molecular weight aggregates | binding to Mad2: change of the HSQC spectrum of Mad2 (Mad2 [2]): induced dramatic chemical shift changes of the majority of Mad2 signals | relative affinity toward Mad2 by competition (Mad2 [2]): binds to Mad2 with a higher affinity than Cdc20P1; also recorded: MBP1 and MBP2 bind to Mad2 with very similar affinities

O=NN(CCCl)C(=O)NCCCl [Carmustine, 1,3 bis (2-chloroethyl)-1-nitrosourea]
solubility in water [3]: poorly soluble in water

DVEEAKILRLSGKP [Cdc20P1]
reduction of intensity of tryptophan fluorescence of Mad2 (Mad2 [4]): 70%

N[C@@H](Cc1ccc(N(CCCl)CCCl)cc1)C(=O)O [Melphalan, 4-[bis(2-chloroethyl)amino]-L-phenylalanine]
fraction of patients with multiple myeloma showing a favorable response [5]: one third to one half | solubility in water [3]: insoluble in water

GWWHIPSPVLRP [clone 11]
ELISA reading (Mad2 [6]): 1.37 OD at 410 nm

MBP1: 12-residue Mad2-binding peptide identified by phage display, contains tryptophan; probably SWYSYPPPQRAV (SEQ ID NO:2)
effect on mitotic arrest caused by GFP-Mad2 overexpression (HeLa cells): counteracted the action of Mad2; also recorded: did not arrest in mitosis | ELISA reading (Mad2 [6]): 0.62 OD at 410 nm | aggregation of the Mad2-peptide complex (Mad2 [1]): stable for extended periods of time and did not aggregate | effect on the ability of Mad2 to inhibit the ubiquitination activity of APC^Cdc20 (Mad2 [7]): blocked the ability of Mad2 to inhibit APC^Cdc20; also recorded: prevented Mad2 from inhibiting APCCdc20 | binding to Mad2: change of the HSQC spectrum of Mad2 (Mad2 [2]): caused dramatic chemical shift changes of the majority of signals | relative affinity toward Mad2 by competition (Mad2 [2]): affinity of MBP1 toward Mad2 is higher than that of Cdc20P1; also recorded: MBP1 and MBP2 bind to Mad2 with very similar affinities

O=C(O)CCCc1ccc(N(CCCl)CCCl)cc1 [Chlorambucil, 4-[bis(2-chlorethyl)amino] benzenebutanoic acid]
absorption from the gastrointestinal tract [8]: rapidly and completely absorbed from the gastrointestinal tract

O.O=P1(N(CCCl)CCCl)NCCCO1 (stereo not shown) [Cyclophosphamide, 2H-1,3,2-Oxazaphosphorin-2-amine, N,N-bis(2-chloroethyl)tetrahydro-, 2-oxide, monohydrate]
stability in the gastrointestinal tract [9]: stable in the gastrointestinal tract

O=NN(CCCl)C(=O)NC1CCCCC1 [Lomustine, 1-(2-chloro-ethyl)-3-cyclohexyl-1 nitrosourea]
tissue levels versus plasma levels ([10]; 15 minutes after intravenous administration): comparable to plasma levels | radioactivity excreted in the form of degradation products ([10]; within 24 hours, oral radioactive lomustine about 30 mg/m^2 to 100 mg/m^2): about half

B1: Cdc20P1 (14-amino acid peptide corresponding to residues 124-137 of Cdc20) (peptide, UniProt Q12834 124-137, looked up)
peptide: DVEEAKILRLSGKP
notes: also called Cdc20P1 peptide; 15N-Cdc20P1
Kd [11]: 3.6 µM
